Measured values taken from the nanobody polyreactivity screen of Harvey et al. (2022).

Experiment: yeast display, Sf9 membrane polyspecificity reagent, FACS + sequencing; frameworks hold sequencing errors
In short: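 In a synthetic yeast display library (Saccharomyces cerevisiae BJ5465), nanobody expression was induced with galactose for 36–48 hours. FACS gates were set low and high (top ~1%) using anti-HA fluorescence for expression and streptavidin fluorescence for binding of the Sf9 membrane reagent. Each polyreactivity label is drawn from the gate of origin.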

**Q.** For “QVQLVESGGGLVQAGGSLRLSCAASGFNFYLNAMGWYRQAPGKERELVAAISSSGGITYYADSVKGRFTISRDNAKNTVYLQMNSLKPEDTADYSCAAYWPKYRYEAERDYWGQGTQVTVSS”, which “polyreactivity (PSR sort gate)” value is on record?
**A.** The value was “low polyreactivity”.

**Q.** Which “polyreactivity (PSR sort gate)” value does the source give for “QVQLVESGGGLVQAGGSLRLSCAASGFNYSQYAMGWYRQAPGKERELVAAITTTGGSTYYADSVKGRFTISRDNAKNTVYLQMNSLKPDDTAVYYCAARYVRTVRGGYWGQGTQVTVSS” here?
**A.** The value was “high polyreactivity”.

**Q.** For “QVQLVESGGGLVQAGGSLRLSCAASGFSFDSYALGWYRKAPGKERELVAAISRSGGSTYYADSVKGRFTISRDNAKNTVYLQMNSLKPEDTAVYYCARDRDSWGGHDSWGQGTQVTVSS”, which “polyreactivity (PSR sort gate)” value is on record?
**A.** Its value is “high polyreactivity”.

**Q.** For “QVQLVESGGGLVQAGGSLRLSCAASGFSFFKYAMGWYRQAPGKERELVAAISSSGGSTYYADSVKGRFTISRDNAKKTVYLQMNSLKPEDTAVYYCAVDNLKCRAQSLDGFDYWGQGTQVTVSS”, which “polyreactivity (PSR sort gate)” value is on record?
**A.** Its value is “high polyreactivity”.

**Q.** For “QVQLVESGGGLVQAGGSLRLSCAASGFSFGIYAMGWYRQAPGKERELVADITASGGSTYYADSVKGRFTISRDNAKNTVYLQMNSLKPEDTAVYYCAADGWWHNFYPGTGLDYWGQGTQVTVSS”, which “polyreactivity (PSR sort gate)” value is on record?
**A.** Its value is “low polyreactivity”.

**Q.** For “QVQLVESGGGLVQAGGSLRLSCAASGFSFPYAMGGYRQAPGKERELVAGISWSGGSTYYADSVKGRFTISRDNAKNTVYLQMNSLKPEDTAVYNCNKYVQSGGTYDYWGQGTQVTVSS”, which “polyreactivity (PSR sort gate)” value is on record?
**A.** The value was “low polyreactivity”.

**Q.** For “QVQLVESGGGLVQAGGSLRLSCAASGFSFQLYPMGWYRQAPWKERELVSAISQSGDSTYYADSVKGRFTISRDNAKNTVYLQMNSQKPEDNAVYYFNAVNDGVVWSYPFDFDYWGQGTQVTVSS”, which “polyreactivity (PSR sort gate)” value is on record?
**A.** Its value is “low polyreactivity”.

**Q.** Which “polyreactivity (PSR sort gate)” value does the source give for “QVQLVESGGGLVQAGGSLRLSCAASGFSFYNYAMGWYRQAPGKERELVAAISWSGGSTHYADSVKGRFTISRDNAKNTVYLQMNSLKPEDTAVYYCAKVGVLGYYTYYYWGQGTQVTVSS” here?
**A.** Its value is “low polyreactivity”.

**Q.** Which “polyreactivity (PSR sort gate)” value does the source give for “QVQLVESGGGLVQAGGSLRLSCAASGFTCKYYAMGWYRQAPGKERELVASINWSGGRTSYADSVKGRFTISRDNAKNTVYLQMNSLKREDTAVYYCARTPAGRGEYWGQGSQVTVSS” here?
**A.** The value was “low polyreactivity”.

**Q.** For “QVQLVESGGGLVQAGGSLRLSCAASGFTCSSNAMGWSRLAAGKERELVAAISSSGARTYYADSVKGRFTISRDNAKTTVYLQMNSLKPEDTAVYYCNARGLAGRKGYDYGGQGTQVTVSS”, which “polyreactivity (PSR sort gate)” value is on record?
**A.** Its value is “high polyreactivity”.

**Q.** Which “polyreactivity (PSR sort gate)” value does the source give for “QVQLVESGGGLVQAGGSLRLSCAASGFTFAANTMGWYRQAPGKERELVADISGRGDRTSYADSVKGRFTISRDNAKNTVYLQMNSLKPEDTAVYYCAVDIYYYSNVHYYYWGQGTQVTVSS” here?
**A.** Its value is “low polyreactivity”.

**Q.** With “QVQLVESGGGLVQAGGSLRLSCAASGFTFADYAMGWYRQAPGKEREWVAAISNGGSTTYADSVKGRFTSSRDNAKNTVYLQMNTLNPEDTAVYYCAAALSSYGWYAYGPWYGYWGQGTQVTVSS” as the sequence, how does the “polyreactivity (PSR sort gate)” value read?
**A.** The value was “high polyreactivity”.

**Q.** For “QVQLVESGGGLVQAGGSLRLSCAASGFTFAFNDMGWYRQAPGKERELVAAITWSGGSTYYADSVKGRFTISRDNAKNTVYLQMNSLKPEDTAVYYCNADLLGYVYLNLPVGSWGQGTQVTVSS”, which “polyreactivity (PSR sort gate)” value is on record?
**A.** The value was “low polyreactivity”.

**Q.** For “QVQLVESGGGLVQAGGSLRLSCAASGFTFAFYAMGRYRQAPGKERELVAAISRRGGSTTYADSVKGRFTISRDNAKNTVYLQMNSLKPEDTAVYYCNAVSTRNPGPDYYYWGQGTQVTVSS”, which “polyreactivity (PSR sort gate)” value is on record?
**A.** Its value is “high polyreactivity”.

**Q.** For “QVQLVESGGGLVQAGGSLRLSCAASGFTFAFYAMGWYRQAPGKERELVAAISKNDGTTYYADSVKGRFTISRHTAKNTVYLLMNSLKPEDTAVYYCAAESCYPVYTYVSSGDYWGQGTQVTVSS”, which “polyreactivity (PSR sort gate)” value is on record?
**A.** The value was “low polyreactivity”.

**Q.** For “QVQLVESGGGLVQAGGSLRLSCAASGFTFAFYTLGWYIQATGKETELVASISWRSGSTYYADSVKGRFTISRDNAKNSVYLQMNSLNPDDTAVYYCAADSAVSWFFYCGQGTQVTVSS”, which “polyreactivity (PSR sort gate)” value is on record?
**A.** The value was “high polyreactivity”.

**Q.** With “QVQLVESGGGLVQAGGSLRLSCAASGFTFAGYAMGWYRLAPGKVRELVAAISWRGGSTYYADSVKGRFTISRDNAKNTVYLQMNSLKPEDTAVYYCAAASRKRTSREPLDYWGQGTQVTVSS” as the sequence, how does the “polyreactivity (PSR sort gate)” value read?
**A.** The value was “high polyreactivity”.

**Q.** For “QVQLVESGGGLVQAGGSLRLSCAASGFTFAGYAMGWYRQAPGKERELVAPINRGGSTYYADSVKGRFTISRDNAKNTVYLQMNSLKQEDTAVYYCADRQEPGWYPDVWWEYDYWGQGTQVTVSS”, which “polyreactivity (PSR sort gate)” value is on record?
**A.** The value was “low polyreactivity”.

**Q.** For “QVQLVESGGGLVQAGGSLRLSCAASGFTFALYAMGWYRQAPGKEREFVAAITRSGGITYYADSVKGRFTFSRDNAKNTVYLQINSLKPEDTAVYYCAAVPRWSVYRAYGYWGQGTQVTVSS”, which “polyreactivity (PSR sort gate)” value is on record?
**A.** The value was “high polyreactivity”.

**Q.** For “QVQLVESGGGLVQAGGSLRLSCAASGFTFALYAMGWYRQAPGKERELVASIDNGVSTNYADSVKGRFTISRDNAKNTVYLQMTSLKPEDTAVYYCAKGPGYGLYKLLSYDSWGQGTQVTVSS”, which “polyreactivity (PSR sort gate)” value is on record?
**A.** Its value is “low polyreactivity”.

**Q.** For “QVQLVESGGGLVQAGGSLRLSCAASGFTFANNAMGWYRQAPGKERELVAAISWNGGSTFYADSVKGRFTISRDNAKNTVYLQMNSLKPEDTAVYYCNTVASYYRWKSYYYWGQGTQVTVSS”, which “polyreactivity (PSR sort gate)” value is on record?
**A.** The value was “high polyreactivity”.

**Q.** With “QVQLVESGGGLVQAGGSLRLSCAASGFTFAPNAMGWYRQAPGKERELVAAISSASSTYYADSVKGRFTISRDNAKNTVYLQMNSLKPEETAVYYCAAKSSTKQRKYYWGQGTQVTVSS” as the sequence, how does the “polyreactivity (PSR sort gate)” value read?
**A.** The value was “high polyreactivity”.

**Q.** For “QVQLVESGGGLVQAGGSLRLSCAASGFTFARYAMGWYRQAPGKERELVAAINWSGGRTYYADSVKGRFTISRDNAKNTVYLQMNSLKPEDTAVYYCNAWGLVYYSSGYDYWGQGTQVTVSS”, which “polyreactivity (PSR sort gate)” value is on record?
**A.** The value was “high polyreactivity”.

**Q.** Which “polyreactivity (PSR sort gate)” value does the source give for “QVQLVESGGGLVQAGGSLRLSCAASGFTFARYAMGWYRQAPGKERELVAAISRGTTTYYADSVKGRFTISRDNAKNTVYLQMNILKPDDTAVYYCAAVTTRTYPGRYYYWGQGTQVTVSS” here?
**A.** Its value is “high polyreactivity”.

**Q.** With “QVQLVESGGGLVQAGGSLRLSCAASGFTFASNAMGWYRPAPWKERELVAGISRTGTTTYYADSVKGRFTISRDNAKNTVYLQMNSLKPEDTAVYYCAASKQAVKYRSQRYYYWGQGTQVTVSS” as the sequence, how does the “polyreactivity (PSR sort gate)” value read?
**A.** The value was “high polyreactivity”.

**Q.** For “QVQLVESGGGLVQAGGSLRLSCAASGFTFASNVMGWYRQAPGKERELVAAITSGASTNYADSVKGRFTISRDNAKNTVYLQMNSLKPEDTAVYYCAAGRQWYVFYEFDYWGQGTQVTVSS”, which “polyreactivity (PSR sort gate)” value is on record?
**A.** Its value is “high polyreactivity”.

**Q.** With “QVQLVESGGGLVQAGGSLRLSCAASGFTFATYAMGWYRQAPGKERELVAAITYRGGRTYYADSVKGRFTISRDNAKNTVYLQMNSLKPEDTAVYYCNTVYPRRLIFGYWGQGTQVTVSS” as the sequence, how does the “polyreactivity (PSR sort gate)” value read?
**A.** The value was “high polyreactivity”.

**Q.** With “QVQLVESGGGLVQAGGSLRLSCAASGFTFAVYAMGWYRQAPGKEREFVADITYDGGSTYYADSVKGRFTISRDNAKNTVYLQMNSLKPEDTAVYYGAAERLGAFQTPSNVSKYYYWGQGSQVTVSS” as the sequence, how does the “polyreactivity (PSR sort gate)” value read?
**A.** Its value is “low polyreactivity”.

**Q.** For “QVQLVESGGGLVQAGGSLRLSCAASGFTFAVYAMGWYRQAPGKERELGAAISRSGTRTYYADSVKGRFTFSRDNAKNTVYLQMNSLKPEDTAVYYCATVVILIYDYWGQGTQVSVSS”, which “polyreactivity (PSR sort gate)” value is on record?
**A.** Its value is “low polyreactivity”.

**Q.** Which “polyreactivity (PSR sort gate)” value does the source give for “QVQLVESGGGLVQAGGSLRLSCAASGFTFAVYVMGWYRQAPGKERELVATISFSVGSTYYADSVKGRFTISGDNAKNTVYLQMNRLKPEDTAVYYCNADPPPEYYPDKDNYWGQGTQVTVSS” here?
**A.** Its value is “low polyreactivity”.

**Q.** With “QVQLVESGGGLVQAGGSLRLSCAASGFTFAWYAMGWYRPAPGKERELVAAISGSGGRTYYADSVKGRFTISRDNAKNTVYLQMNSLKPEDTAVYYFNTDRYWGKGDYWGQGTLVTVSS” as the sequence, how does the “polyreactivity (PSR sort gate)” value read?
**A.** Its value is “high polyreactivity”.
